Target: 14-3-3γ (UniProt P61981)
Test: co-immunoprecipitation, Western blot
Conditions: reference: full-length wild-type MDMX; sites S367

MDMX (from UniProt O15151) MDMX-S367A
binding against the reference: lost
